Assay results from US6344321, “Nucleic acid ligands which bind to hepatocyte growth factor/scatter factor (HGF/SF) or its receptor c-met” (Gilead Sciences, Inc.).

Tests used:
[1] = target: T1, HGF (hepatocyte growth factor/scatter factor) (UniProt P14210;P14210 P14210:32-494,P14210:495-728); experiment: filter; HBSMC, 37C; SEQ 108 in listing duplicates SEQ 107, table sequence used; conditions: tags: R&D Systems
Experimental: (§1) In binding reactions, RNA concentrations were kept as low as possible—between 1 and 20 pM—to ensure equilibrium in conditions of protein excess. Oligonucleotides were incubated for 15 minutes at 37° C. with varying amounts of the protein in 43 µl of the binding buffer. Thirty-two microliters of each binding mixture placed on pre-wet 0.45 µm nitrocellulose filters under suction. Each well was immediately washed with 0.5 ml binding buffer. The amount of radioactivity retained on the filters was quantitated by imaging. The radioactivity that bound to filters in the absence of protein was used for background correction. The percentage of input oligonucleotide retained on each filter spot was plotted against the corresponding log protein concentration. The nonlinear least square method was used to obtain the dissociation constant (K_d; reference Jellinek, Lynott et al. 1993, Proc. Natl. Acad. Sci. USA. 90:11227–31).

[2] = target: T1, HGF (hepatocyte growth factor/scatter …); experiment: filter; no significant binding retained; conditions: tags: R&D Systems
Experimental: as §1

[3] = target: T1, HGF (hepatocyte growth factor/scatter …); experiment: filter; HBSMC, 37C; conditions: tags: R&D Systems
Experimental: as §1

[4] = target: T1, HGF (hepatocyte growth factor/scatter …); experiment: filter; 40N8 hitchhiker; conditions: tags: R&D Systems
Experimental: as §1

[5] = target: c-met extracellular domain-IgG1-His6 (Homo sapiens, UniProt P08581 P08581:25-932); experiment: filter; biphasic; lower affinity Kd ~5 nM; conditions: chain copies: 2
[6] = target: T1, HGF (hepatocyte growth factor/scatter …); experiment: filter; one or two 5' G; conditions: tags: R&D Systems
Experimental: as §1

[7] = target: T1, HGF (hepatocyte growth factor/scatter …); experiment: filter; 36mer; PEGylated form inhibits HGF in cells; conditions: tags: R&D Systems
Experimental: as §1

[8] = target: T1, HGF (hepatocyte growth factor/scatter …); experiment: filter; HBSMC, 37C; table cites SEQ 15, which is a template in the listing; conditions: tags: R&D Systems
Experimental: as §1

[9] = target: T1, HGF (hepatocyte growth factor/scatter …); experiment: filter; HBSMC, 37C; worse than random pool; conditions: tags: R&D Systems
Experimental: as §1

[10] = target: T1, HGF (hepatocyte growth factor/scatter …); experiment: filter; one or two 5' G; no inhibition of HGF in cells without PEG; conditions: tags: R&D Systems
Experimental: as §1

[11] = target: T1, HGF (hepatocyte growth factor/scatter …); experiment: filter; HBSMC, 37C; SEQ 43 in listing has a deviating 3' end; conditions: tags: R&D Systems
Experimental: as §1

T1 sequence (P14210 32-494, chain 1 of 2): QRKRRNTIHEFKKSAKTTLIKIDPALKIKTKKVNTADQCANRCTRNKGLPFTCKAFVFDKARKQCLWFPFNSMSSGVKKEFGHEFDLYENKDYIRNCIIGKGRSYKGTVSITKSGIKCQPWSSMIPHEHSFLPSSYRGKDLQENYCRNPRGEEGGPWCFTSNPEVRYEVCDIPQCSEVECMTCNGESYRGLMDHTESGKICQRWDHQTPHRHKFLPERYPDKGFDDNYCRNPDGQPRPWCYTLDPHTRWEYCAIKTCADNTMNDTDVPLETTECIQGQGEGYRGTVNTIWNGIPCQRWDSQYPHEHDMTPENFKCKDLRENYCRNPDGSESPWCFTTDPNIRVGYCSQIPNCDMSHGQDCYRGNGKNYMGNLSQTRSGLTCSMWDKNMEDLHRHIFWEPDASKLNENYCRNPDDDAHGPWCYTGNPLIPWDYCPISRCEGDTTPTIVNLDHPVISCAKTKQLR
T1 sequence (P14210 495-728, chain 2 of 2): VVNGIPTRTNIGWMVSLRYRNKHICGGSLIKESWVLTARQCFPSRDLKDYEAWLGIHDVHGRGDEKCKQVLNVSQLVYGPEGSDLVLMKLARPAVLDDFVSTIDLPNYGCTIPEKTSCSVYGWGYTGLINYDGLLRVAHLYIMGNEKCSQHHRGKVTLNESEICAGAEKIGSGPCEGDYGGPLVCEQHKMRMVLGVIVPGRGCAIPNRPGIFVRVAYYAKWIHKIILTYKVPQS
c-met extracellular domain-IgG1-His6, sequence (P08581 25-932, one chain of several): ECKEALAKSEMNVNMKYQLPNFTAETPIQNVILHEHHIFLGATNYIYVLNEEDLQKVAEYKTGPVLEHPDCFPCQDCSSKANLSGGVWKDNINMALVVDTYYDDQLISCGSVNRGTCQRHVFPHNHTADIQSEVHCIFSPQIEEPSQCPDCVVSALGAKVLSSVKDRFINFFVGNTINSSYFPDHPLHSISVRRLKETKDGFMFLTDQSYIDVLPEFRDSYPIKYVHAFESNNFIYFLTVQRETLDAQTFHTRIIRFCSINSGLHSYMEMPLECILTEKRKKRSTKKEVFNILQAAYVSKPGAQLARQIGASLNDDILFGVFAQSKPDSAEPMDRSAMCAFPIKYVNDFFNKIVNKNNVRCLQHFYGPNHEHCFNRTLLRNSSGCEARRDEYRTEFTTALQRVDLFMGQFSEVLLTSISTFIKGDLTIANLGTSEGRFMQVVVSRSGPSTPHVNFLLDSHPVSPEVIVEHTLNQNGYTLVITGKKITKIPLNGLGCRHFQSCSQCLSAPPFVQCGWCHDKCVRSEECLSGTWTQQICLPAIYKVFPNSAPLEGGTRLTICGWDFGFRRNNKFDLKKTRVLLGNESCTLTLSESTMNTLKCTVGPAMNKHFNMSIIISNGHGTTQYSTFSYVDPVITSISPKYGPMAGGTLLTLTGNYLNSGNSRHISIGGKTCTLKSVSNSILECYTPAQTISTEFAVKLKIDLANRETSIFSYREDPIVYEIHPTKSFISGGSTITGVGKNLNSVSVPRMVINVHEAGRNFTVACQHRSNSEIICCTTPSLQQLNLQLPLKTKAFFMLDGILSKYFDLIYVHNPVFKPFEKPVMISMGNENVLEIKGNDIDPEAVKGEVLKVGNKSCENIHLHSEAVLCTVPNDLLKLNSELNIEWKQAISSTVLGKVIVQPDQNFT

Row | Binder | Kd [6] [nM] | further results
1 | 10-17 (ssRNA, 2'-F pyrimidines) RNA: GGGAGAUAAGAAUAAACGCUCAAAACCCUGUUGGCGUGACGUCCCGACCCUCCUUCGACAGGAGGCUCACAACAGGC |  | Kd [1]: 0.56 nM
2 | GGGAGGACGAUGCGGGCGGCUCGAUGUCGUCUUAUCCC (ssRNA, 2'-F pyrimidines) [8-17 38mer] |  | binding result [2]: no binding
3 | 10-58 (ssRNA, 2'-F pyrimidines) RNA: GGGAGAUAAGAAUAAACGCUCAAGGGGAGGCCCUUCAGCCGUCUCCUUGACCCUUCGACAGGAGGCUCACAACAGGC |  | Kd [3]: 0.44 nM
4 | 10-4 (ssRNA, 2'-F pyrimidines) RNA: GGGAGAUAAGAAUAAACGCUCAAUUGGGUCGGGACUCGAAAGGAUUUGAUAGGAUACAUGAAUUUCGACAGGAGGCUCACAACAGGC |  | Kd [4]: 0.61 nM
5 | 10-68 (ssRNA, 2'-F pyrimidines) RNA: GGGAGAUAAGAAUAAACGCUCAACGCGGGAUUCUCUGAGGACGAGGCACGUGUGGGUAAUUCGUUCGACAGGAGGCUCACAACAGGC |  | Kd [4]: 1 nM
6 | 7c-1 (ssRNA, 2'-F pyrimidines) RNA: GGGAGGACGAUGCGGUUUGACUAUGUCUGACGGGUCUGUGGUCAAUUCCGCCCCCAGACGACUCGCCCGA |  | Kd [5]: ~0.05 nM
7 | GGGGUGACCCUUUUUAUGACAUCGCGUCUGGCCA (ssRNA, 2'-F pyrimidines) [Tr28] | 4 | 
8 | GGACGAUGCGGCGAGUGCCUGUUUAUGUCAUCGUCC (ssRNA, 2'-F pyrimidines; NX22354 formulation carries 5'-40K PEG and 3'-dT cap) [NX22354 (36mer of 8-102)] |  | Kd [7]: 0.1 nM
9 | GGUCAGAAUGACUUUCAUAGCUCGCUUUCCCCCA (ssRNA, 2'-F pyrimidines) [Tr71] | 7.7 | 
10 | GGACGAUGCGGGCGGCUCGAUGUCGUCU (ssRNA, 2'-F pyrimidines) [8-17 28mer] |  | binding result [2]: no binding
11 | GGGUGACUCAAAAUGGUGAUCCUCGUUUCCGCCA (ssRNA, 2'-F pyrimidines) [Tr4] | 1.4 | 
12 | 8-117 (ssRNA, 2'-F pyrimidines) RNA: GGGAGGACGAUGCGGUCCCAAGUUUCAGGGCGUUUCUUCCUCGUCCAGACGACUCGCCCGA |  | Kd [8]: 0.13 nM
13 | 10-67 (ssRNA, 2'-F pyrimidines) RNA: GGGAGAUAAGAAUAAACGCUCAAUCGGGCUUGGAUGUGGACGUGUAUUUCUAGCUGUGUACGCUUCGACAGGAGGCUCACAACAGGC |  | Kd [4]: 0.64 nM
14 | GGUGUGAACCUGUUUAUGCCAUCUCGAGUCCCCA (ssRNA, 2'-F pyrimidines) [Tr20] | 3.4 | 
15 | 10-38 (ssRNA, 2'-F pyrimidines) RNA: GGGAGAUAAGAAUAAACGCUCAAUCUGCGGACGGUGAGGUUAAGUUGCAACGACUGCUUGGCGUUCGACAGGAGGCUCACAACAGGC |  | Kd [4]: 7.38 nM
16 | GGAUUGAUUCACUGCAUCCUUGACUCUUCCCCCA (ssRNA, 2'-F pyrimidines) [Tr1] | 7.3 | 
17 | GGUGGGAACCUAUUUAUGUCAUCGUCUGUGCCCA (ssRNA, 2'-F pyrimidines) [Tr70] | 2.4 | 
18 | GGUGGGAACCUAUUUAUGUCAUCUCCGUCCCCA (ssRNA, 2'-F pyrimidines) [Tr45] | 1.7 | 

Row | Binder | Kd [6] [nM] | further results
19 | 10-63 (ssRNA, 2'-F pyrimidines) RNA: GGGAGAUAAGAAUAAACGCUCAAUGUGAUGUGAGGGCGUGCUUCCUAACGGUGUUCGACAGGAGGCUCACAACAGGC |  | Kd [3]: 0.19 nM
20 | GGACAGUUUGUCUUCUAUAGCUCGUCGCCCCCA (ssRNA, 2'-F pyrimidines) [Tr59] | 7.2 | 
21 | GGGUUUGAGUGACGAUCGUCUUGUCCCAUGUGCA (ssRNA, 2'-F pyrimidines) [Tr15] | 8.8 | 
22 | 10-35 (ssRNA, 2'-F pyrimidines) RNA: GGGAGAUAAGAAUAAACGCUCAAAUCCAAAUUCUGGUCAUGAGGCGCUGCAGAUACUGCUGCGUUCGACAGGAGGCUCACAACAGGC |  | Kd [4]: 2.33 nM
23 | GGCGUGAGCCUAUUUAUGUCAUCAUGUCUGUGCA (ssRNA, 2'-F pyrimidines) [Tr6] | 9 | 
24 | 8-102 (ssRNA, 2'-F pyrimidines) RNA: GGGAGGACGAUGCGGCGAGUGCCUGUUUAUGUCAUCGUCCGUCGUCAGACGACUCGCCCGA |  | Kd [3]: 0.06 nM
25 | 8-151 (ssRNA, 2'-F pyrimidines) RNA: GGGAGGACGAUGCGGAGGACUAAUCCCUAAGGAAUAGCUUGCCCGCAGACGACUCGCCCGA |  | Kd [9]: 8 nM
26 | GGUGAUCACCUGUUUAUGCCAUCGUUCUGGGCCA (ssRNA, 2'-F pyrimidines) [Tr48] | 1.8 | 
27 | GGCAGACGACUCGCCCGAAGGACGAUGCGGCA (ssRNA, 2'-F pyrimidines) [Tr5] | 28 | 
28 | GGAGUGAUCCUAUUUAUGCCGUCGCUUCUCGCCA (ssRNA, 2'-F pyrimidines) [Tr44] | 6.5 | 
29 | GGAAUCACAGGAAUCAACUUCUAUUCCCGCCCCA (ssRNA, 2'-F pyrimidines) [Tr51] |  | Kd [10]: 0.06 nM
30 | GGCGGUGUGAACCUGUUUAUGUCCGCGUACCCCA (ssRNA, 2'-F pyrimidines) [Tr7] | 0.67 | 
31 | 11-106 (ssRNA, 2'-F pyrimidines) RNA: GGGAGGACGAUGCGGCGAUGAUGCCUGUUUAUGUCGAUGUCCCCCCAGACGACUCGCCCGA |  | Kd [11]: 0.12 nM
32 | GGUGAAUUCCUCUGGCUGAAAAUGACUUGUGCCA (ssRNA, 2'-F pyrimidines) [Tr31] | 9.2 | 
33 | GGUGAUAACCUAUUUAUGACGUCGUGGCUCCCCA (ssRNA, 2'-F pyrimidines) [Tr42] | 6.1 | 
34 | 10-56 (ssRNA, 2'-F pyrimidines) RNA: GGGAGAUAAGAAUAAACGCUCAACCUUAGGGCUCCCAAAAAUCGGGCCCGUCGGGCCGAUCACUUCGACAGGAGGCUCACAACAGGC |  | Kd [4]: 0.28 nM
35 | GGGCGGCUCGAUGUCGUCUUAUCCCUUUGCCCCA (ssRNA, 2'-F pyrimidines) [Tr17] | 3 | 
36 | GGGAGUUAUAUUUCGUCACCCGUUCCUUUGCCCCA (ssRNA, 2'-F pyrimidines) [Tr14] | 2.2 | 
